Measured values published in patent publication US20130209454A1.

Experiments:
Experiment in all cases: cell-based or functional assay
[1] = target: Env of HIV-1 strain 0815.v3.c3 (HIV-1)
[2] = target: Env of HIV-1 strain 1006_11_C3_1601 (HIV-1)
[3] = target: Env of HIV-1 strain 1056_10_TA11_1826 (HIV-1)
[4] = target: Env of HIV-1 strain 191821_E6_1 (HIV-1)
[5] = target: Env of HIV-1 strain 62357_14_D3_4589 (HIV-1)
[6] = target: Env of HIV-1 strain 6240_08_TA5_4622 (HIV-1)
[7] = target: Env of HIV-1 strain 6545.v4.c1 (HIV-1)
[8] = target: Env of HIV-1 strain BJOX009000.02.4 (HIV-1)
[9] = target: Env of HIV-1 strain BJOX025000.01.1 (HIV-1)
[10] = target: Env of HIV-1 strain C3347.c11 (HIV-1)
[11] = target: Env of HIV-1 strain CNE52 (HIV-1)
[12] = target: Env of HIV-1 strain Ce0393_C3 (HIV-1)
[13] = target: Env of HIV-1 strain Ce1086_B2 (HIV-1)
[14] = target: Env of HIV-1 strain Ce1176_A3 (HIV-1)
[15] = target: Env of HIV-1 strain Du156.12 (HIV-1)
[16] = target: Env of HIV-1 strain HIV-0013095-2.11 (HIV-1)
[17] = target: Env of HIV-1 strain HIV-16845-2.22 (HIV-1)
[18] = target: Env of HIV-1 strain QH0692.42 (HIV-1)
[19] = target: Env of HIV-1 strain REJO4541.67 (HIV-1)
[20] = target: Env of HIV-1 strain WEAU_d15_410_787 (HIV-1)
[21] = target: Env of HIV-1 strain X1632_S2_B10 (HIV-1)
[22] = target: Env of HIV-1 strain X2088_c9 (HIV-1)
[23] = target: Env of HIV-1 strain ZM135M.PL10a (HIV-1)
[24] = target: Env of HIV-1 strain ZM233M.PB6 (HIV-1)
[25] = target: Env of HIV-1 strain ZM53M.PB12 (HIV-1)
[26] = target: HIV-1 Env of strain 1006_11_C3_1601 (HIV-1)
[27] = target: HIV-1 Env of strain 263-8 (HIV-1)
[28] = target: HIV-1 Env of strain 62357_14_D3_4589 (HIV-1)
[29] = target: HIV-1 Env of strain 6244_13_B5_4576 (HIV-1)
[30] = target: HIV-1 Env of strain 6535.3 (HIV-1)
[31] = target: HIV-1 Env of strain 6545.v4.c1 (HIV-1)
[32] = target: HIV-1 Env of strain 6952.v1.c20 (HIV-1)
[33] = target: HIV-1 Env of strain A07412M1.vrc12 (HIV-1)
[34] = target: HIV-1 Env of strain BF1266.431a (HIV-1)
[35] = target: HIV-1 Env of strain BJOX009000.02.4 (HIV-1)
[36] = target: HIV-1 Env of strain BJOX015000.11.5 (HIV-1)
[37] = target: HIV-1 Env of strain BJOX028000.10.3 (HIV-1)
[38] = target: HIV-1 Env of strain C1080.c03 (HIV-1)
[39] = target: HIV-1 Env of strain C2101.c01 (HIV-1)
[40] = target: HIV-1 Env of strain CAP210.2.00.E8 (HIV-1)
[41] = target: HIV-1 Env of strain CNE19 (HIV-1)
[42] = target: HIV-1 Env of strain CNE20 (HIV-1)
[43] = target: HIV-1 Env of strain Ce1086_B2 (HIV-1)
[44] = target: HIV-1 Env of strain Du172.17 (HIV-1)
[45] = target: HIV-1 Env of strain P0402_c2_11 (HIV-1)
[46] = target: HIV-1 Env of strain PVO.4 (HIV-1)
[47] = target: HIV-1 Env of strain Q23.17 (HIV-1)
[48] = target: HIV-1 Env of strain RHPA4259.7 (HIV-1)
[49] = target: HIV-1 Env of strain SC422661.8 (HIV-1)
[50] = target: HIV-1 Env of strain X2088_c9 (HIV-1)

NIH45-46 (antibody), sequence (VH): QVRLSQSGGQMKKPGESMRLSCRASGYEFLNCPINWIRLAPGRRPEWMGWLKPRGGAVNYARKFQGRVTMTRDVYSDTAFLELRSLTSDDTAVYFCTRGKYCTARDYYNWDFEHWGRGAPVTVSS
NIH45-46 (antibody), sequence (V domain): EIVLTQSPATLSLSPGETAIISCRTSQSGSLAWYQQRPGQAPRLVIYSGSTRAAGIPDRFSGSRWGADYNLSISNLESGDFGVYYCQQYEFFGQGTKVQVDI

Substance NIH45-46 (antibody) has an IC80 [1] of 0.052 µg/mL, an IC80 [2] of 0.196 µg/mL and an IC80 [3] of 0.447 µg/mL. The IC80 [4] was 0.46 µg/mL, the IC80 [5] was 0.19 µg/mL and the IC80 [6] was 1.55 µg/mL. The IC80 [7] was greater than 50 µg/mL, the IC80 [8] was 1.16 µg/mL and the IC80 [9] was 10 µg/mL. The IC80 [10] was 0.094 µg/mL, the IC80 [11] was 0.12 µg/mL and the IC80 [12] was 0.936 µg/mL. It also gave an IC80 [13] of 0.28 µg/mL, an IC80 [14] of 3.17 µg/mL and an IC80 [15] of 0.054 µg/mL. The IC80 [16] was 0.03 µg/mL, the IC80 [17] was 22.6 µg/mL and the IC80 [18] was 1.71 µg/mL. For the same substance, the IC80 [19] was 0.035 µg/mL, the IC80 [20] was 0.015 µg/mL and the IC80 [21] was greater than 50 µg/mL. The IC80 [22] was greater than 50 µg/mL, the IC80 [23] was 2.79 µg/mL and the IC80 [24] was 14.2 µg/mL. It also gave an IC80 [25] of 0.61 µg/mL, an IC50, pseudovirus neutralization [26] of 0.027 µg/mL and an IC50, pseudovirus neutralization [27] of 0.05 µg/mL. For the same substance, the IC50, pseudovirus neutralization [28] was 0.06 µg/mL, the IC50, pseudovirus neutralization [29] was 0.07 µg/mL and the IC50, pseudovirus neutralization [30] was 0.14 µg/mL. It also gave an IC50, pseudovirus neutralization [31] greater than 50 µg/mL, an IC50, pseudovirus neutralization [32] of 0.02 µg/mL and an IC50, pseudovirus neutralization [33] of 0.03 µg/mL. For the same substance, the IC50, pseudovirus neutralization [34] was 0.01 µg/mL, the IC50, pseudovirus neutralization [35] was 0.26 µg/mL and the IC50, pseudovirus neutralization [36] was 0.06 µg/mL. It also gave an IC50, pseudovirus neutralization [37] of 0.07 µg/mL, an IC50, pseudovirus neutralization [38] of 2.48 µg/mL and an IC50, pseudovirus neutralization [39] of 4.24 µg/mL. The IC50, pseudovirus neutralization [40] was greater than 50 µg/mL, the IC50, pseudovirus neutralization [41] was 0.07 µg/mL and the IC50, pseudovirus neutralization [42] was 7.83 µg/mL. It also gave an IC50, pseudovirus neutralization [43] of 0.04 µg/mL, an IC50, pseudovirus neutralization [44] greater than 50 µg/mL and an IC50, pseudovirus neutralization [45] of 0.073 µg/mL. For the same substance, the IC50, pseudovirus neutralization [46] was 0.12 µg/mL, the IC50, pseudovirus neutralization [47] was 0.14 µg/mL and the IC50, pseudovirus neutralization [48] was 0.017 µg/mL. For the same substance, the IC50, pseudovirus neutralization [49] was 0.06 µg/mL and the IC50, pseudovirus neutralization [50] was greater than 50 µg/mL.
